Patent US20210024639A1 (AGOMAB THERAPEUTICS, published 2021)

Experiments:
[1] = biological target: T1, native human MET on living human cells (human, UniProt P08581 25-1390); experiment: flow cytometry, A549 cells
T1 construct: whole, on cells; also called Human cells (A549); HPAF-II
Method in brief: (§1)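 Chimeric anti-MET antibodies were incubated with living cells, and bound antibody was detected by flow cytometry with phycoerythrin-conjugated anti-human IgG1. Positive controls were a mouse anti-human MET antibody (PE anti-mouse IgG1) and a goat anti-mouse MET antibody (PE anti-goat IgG1); maximal binding (EMAX) was derived.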

[2] = biological target: human MET ECD mutant E (mutations 2, 3, 4) (human) (UniProt P08581); experiment: ELISA, MET ECD mutant in solid phase, mAb 0-50 nM
[3] = biological target: human MET ECD mutant A (mutations 1, 2, 3) (human) (UniProt P08581); experiment: ELISA, MET ECD mutant in solid phase, mAb 0-50 nM
[4] = biological target: human MET ECD mutant H (mutations 2, 4) (human) (UniProt P08581); experiment: ELISA, MET ECD mutant in solid phase, mAb 0-50 nM
[5] = biological target: human MET ECD mutant D (mutations 1, 2) (human) (UniProt P08581); experiment: ELISA, MET ECD mutant in solid phase, mAb 0-50 nM
[6] = biological target: T2, human MET-Fc chimeric protein (R&D Systems) (human, UniProt P08581 25-932); experiment: competition ELISA, hMET-Fc in solid phase, competitor 0.3 nM biotinylated hHGF
T2 construct: extracellular domain; bought (R&D Systems); also called hMET; not shown: Fc portion of human IgG1
Method in brief: (§2)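 First, HGF is biotinylated at the N-terminus via NHS-LC-biotin. Next, the coated chimeric receptor is incubated with this tracer plus antibody at rising concentrations, 0-120 nM. Finally, IC₅₀ and IMAX (maximal % competition reached at saturation) are derived.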

[7] = biological target: T1, native human MET on living human cells; experiment: cell-based or functional assay
[8] = biological target: T3, native mouse MET on living mouse cells (mouse, UniProt P16056 25-1379); experiment: cell-based or functional assay
[9] = biological target: T3, native mouse MET on living mouse cells; experiment: flow cytometry, MLP29 cells
Method in brief: as §1

[10] = biological target: T1, native human MET on living human cells; experiment: cell-based or functional assay; remark: listed apart in the source
[11] = biological target: T3, native mouse MET on living mouse cells; experiment: cell-based or functional assay; remark: listed apart in the source
[12] = biological target: T4, mouse MET-Fc chimeric protein (R&D Systems) (mouse, UniProt P16056 25-929, limits assumed); experiment: competition ELISA, mMET-Fc in solid phase, competitor 0.3 nM biotinylated mHGF
T4 construct: bought (R&D Systems); also called mMET; not shown: Fc
Method in brief: as §2

[13] = biological target: T5, human MET extracellular domain (ECD) (human, UniProt P08581 25-932); experiment: ELISA, MET ECD in solid phase, mAb 0-50 nM
T5 construct: range 1-932; recombinant ECD; also called hMET; human MET ECD
Description: Using human MET as a template, we mutagenized each of these residues in different permutations, generating a series of MET mutants that are fully human except for specific residues, which are llama. Next, we tested the affinity of selected SEMA-binding mAbs (71D6, 71C3, 71D4, 71A3, 71G2) and PSI-binding mAbs (76H10 and 71G3) for these MET mutants by ELISA. To this end, the various MET proteins were immobilized in solid phase (100 ng/well in a 96-well plate) and then exposed to increasing concentrations of antibodies (0-50 nM) solution. […] Wild-type human MET was used as positive control.
TABLE 18 The epitopes of MET responsible for agonistic antibody binding represent residues conserved among H. sapiens, M. musculus, R. norvegicus, M. fascicularis but not among the same species and L. glama. The relevance of residues conserved among human, mouse, rat, cynomolgus monkey but not llama MET for binding to agonistic mAbs was tested by ELISA. Wild-type (WT) or mutant (MT) human MET ECD was immobilized in solid phase and exposed to increasing concentrations of mAbs in solution. […] All binding values were normalized to the WT protein and are expressed as % binding (EMAX) compared to WT MET.

[14] = biological target: human MET ECD mutant I (mutations 6, 7, 8) (human) (UniProt P08581); experiment: ELISA, MET ECD mutant in solid phase, mAb 0-50 nM
[15] = biological target: human MET ECD mutant J (mutations 6, 7) (human) (UniProt P08581); experiment: ELISA, MET ECD mutant in solid phase, mAb 0-50 nM

Binder | EMAX (% relative to control) [1] [%] | IMAX (maximum % competition) [6] [%] | EMAX (% relative to control) [9] [%] | cell scattering score, HPAF-II, 0.001 nM [10] [score 0-4] | cell scattering score, HPAF-II, 0.004 nM [10] [score 0-4] | cell scattering score, HPAF-II, 0.012 nM [10] [score 0-4] | cell scattering score, HPAF-II, 0.037 nM [10] [score 0-4] | cell scattering score, HPAF-II, 0.111 nM [10] [score 0-4] | cell scattering score, HPAF-II, 0.333 nM [10] [score 0-4] | cell scattering score, HPAF-II, 1.000 nM [10] [score 0-4] | cell scattering score, HPAF-II, 3.000 nM [10] [score 0-4] | cell scattering score, HPAF-II, 9.000 nM [10] [score 0-4] | cell scattering score, MLP29, 0.001 nM [11] [score 0-4] | cell scattering score, MLP29, 0.004 nM [11] [score 0-4] | cell scattering score, MLP29, 0.012 nM [11] [score 0-4] | cell scattering score, MLP29, 0.037 nM [11] [score 0-4] | protection from staurosporine, viability EC50, MCF10A [7] [nM] | protection from staurosporine, viability EMAX, MCF10A [7] [%] | protection from staurosporine, viability EC50, MLP29 [8] [nM] | protection from staurosporine, viability EMAX, MLP29 [8] [%] | other results
chimeric llama-human IgG1 mAb 71D4 (antibody, V domains shown) VH: ELQLVESGGGLVQPGGSLRLSCAASGFTFSGYGMSWVRQAPGKGLEWVSDINSGGGSTSYADSVKGRFTISRDNAKNTLYLQMNSLKPEDTAVYYCAKDMRLYLARYNDYEAWDYWGQGTQVTVSS VL: SSALTQPSALSVTLGQTAKITCQGGSLGSSYAHWYQQKPGQAPVLVIYDDDSRPSGIPERFSGSSSGGTATLTISGAQAEDEGDYYCQSADSSGNAAVFGGGTHLTVL | 107 | 95.6 | 94.8 | 0 | 0 | 0 | 0 | 0 | 0 | 1 | 2 | 2 | 0 | 0 | 0 | 0 | 30.2 | 51.7 | 29.8 | 52.1 | % binding (EMAX) compared to WT MET [2]: 57.2%; % binding (EMAX) compared to WT MET [3]: 114%; % binding (EMAX) compared to WT MET [4]: 58.7%; % binding (EMAX) compared to WT MET [5]: 120%; cell scattering score, MLP29, 0.111 nM [11]: 0 score 0-4; cell scattering score, MLP29, 0.333 nM [11]: 0 score 0-4; cell scattering score, MLP29, 1.000 nM [11]: 1 score 0-4; cell scattering score, MLP29, 3.000 nM [11]: 2 score 0-4; cell scattering score, MLP29, 9.000 nM [11]: 2 score 0-4; IMAX (maximum % competition) [12]: 91.3%; % binding (EMAX) compared to WT MET [13]: 100%
chimeric llama-human IgG1 mAb 71A3 (antibody, V domains shown) VH: EVQLVESGGGLVQPGGSLRLSCAASGFSFKDYDITWVRQAPGKGLEWVSTITSRSGSTSYVDSVKGRFTISGDNAKNTLYLQMNSLKPEDTAVYYCAKVYATTWDVGPLGYGMDYWGKGTLVTVSS VL: SYELTQPSALSVTLGQTAKITCQGGSLGSSYAHWYQQKPGQAPVLVIYDDDSRPSGIPERFSGSSSGGTATLTISGAQAEDEGDYYCQSADSSGNAAVFGGGTHLTVL | 161 | 93.4 | 144 | 0 | 0 | 2 | 3 | 3 | 4 | 4 | 4 | 4 | 0 | 0 | 2 | 3 | < 0.5 | 71.7 | < 0.5 | 70.5 | % binding (EMAX) compared to WT MET [2]: 65.4%; % binding (EMAX) compared to WT MET [3]: 117%; % binding (EMAX) compared to WT MET [4]: 76.7%; % binding (EMAX) compared to WT MET [5]: 128%; cell scattering score, MLP29, 0.111 nM [11]: 3 score 0-4; cell scattering score, MLP29, 0.333 nM [11]: 4 score 0-4; cell scattering score, MLP29, 1.000 nM [11]: 4 score 0-4; cell scattering score, MLP29, 3.000 nM [11]: 4 score 0-4; cell scattering score, MLP29, 9.000 nM [11]: 4 score 0-4; IMAX (maximum % competition) [12]: 87.7%; % binding (EMAX) compared to WT MET [13]: 100%

Continued, in another order:

EMAX (% relative to control) [1] [%] | IMAX (maximum % competition) [6] [%] | EMAX (% relative to control) [9] [%] | cell scattering score, HPAF-II, 0.001 nM [10] [score 0-4] | cell scattering score, HPAF-II, 0.004 nM [10] [score 0-4] | cell scattering score, HPAF-II, 0.012 nM [10] [score 0-4] | cell scattering score, HPAF-II, 0.037 nM [10] [score 0-4] | cell scattering score, HPAF-II, 0.111 nM [10] [score 0-4] | cell scattering score, HPAF-II, 0.333 nM [10] [score 0-4] | cell scattering score, HPAF-II, 1.000 nM [10] [score 0-4] | cell scattering score, HPAF-II, 3.000 nM [10] [score 0-4] | cell scattering score, HPAF-II, 9.000 nM [10] [score 0-4] | cell scattering score, MLP29, 0.001 nM [11] [score 0-4] | cell scattering score, MLP29, 0.004 nM [11] [score 0-4] | cell scattering score, MLP29, 0.012 nM [11] [score 0-4] | cell scattering score, MLP29, 0.037 nM [11] [score 0-4] | Binder | protection from staurosporine, viability EC50, MCF10A [7] [nM] | protection from staurosporine, viability EMAX, MCF10A [7] [%] | protection from staurosporine, viability EC50, MLP29 [8] [nM] | protection from staurosporine, viability EMAX, MLP29 [8] [%] | other results
144 | 97.8 | 130 | 0 | 1 | 2 | 3 | 4 | 4 | 4 | 4 | 4 | 0 | 0 | 1 | 2 | chimeric llama-human IgG1 mAb 71G2 (antibody, V domains shown) VH: EVQLQESGGGLVQPGGSLRLSCAASGFTFSIYDMSWVRQAPGKGLEWVSTINSDGSSTSYVDSVKGRFTISRDNAKNTLYLQMNSLKPEDTAVYYCAKVYGSTWDVGPMGYGMDYWGKGTLVTVSS VL: SSALTQPSALSVSLGQTARITCQGGSLGSSYAHWYQQKPGQAPVLVIYGDDSRPSGIPERFSGSSSGGTATLTISGAQAEDEDDYYCQSTDSSGNTVFGGGTRLTVL | 1.06 | 64.8 | 1.99 | 58.3 | % binding (EMAX) compared to WT MET [2]: 41.4%; % binding (EMAX) compared to WT MET [3]: 92.1%; % binding (EMAX) compared to WT MET [4]: 40.2%; % binding (EMAX) compared to WT MET [5]: 114%; cell scattering score, MLP29, 0.111 nM [11]: 4 score 0-4; cell scattering score, MLP29, 0.333 nM [11]: 4 score 0-4; cell scattering score, MLP29, 1.000 nM [11]: 4 score 0-4; cell scattering score, MLP29, 3.000 nM [11]: 4 score 0-4; cell scattering score, MLP29, 9.000 nM [11]: 4 score 0-4; IMAX (maximum % competition) [12]: 91.9%; % binding (EMAX) compared to WT MET [13]: 100%
130 | 64.2 | 124 | 0 | 0 | 0 | 0 | 0 | 0 | 1 | 2 | 3 | 0 | 0 | 0 | 0 | chimeric llama-human IgG1 mAb 76H10 (antibody, V domains shown) VH: QLQLVESGGGLVQPGGSLRVSCTASGFTFNTYYMTWVRQAPGKGLEWVSDINSGGGTYYADSVKGRFTISRDNAKNTLYLQMNSLKPEDTALYYCVRVRIWPVGYDYWGQGTQVTVSS VL: QAVVTQEPSLSVSPGGTVTLTCGLSSGSVTTSNYPGWFQQTPGQAPRTLIYNTNNRHSGVPSRFSGSISGNKAALTITGAQPEDEADYYCSLYTGSYTTVFGGGTHLTVL | > 32 | 22.8 | > 32 | 27.2 | % binding (EMAX) compared to WT MET [14]: 100%; % binding (EMAX) compared to WT MET [15]: 89%; cell scattering score, MLP29, 0.111 nM [11]: 0 score 0-4; cell scattering score, MLP29, 0.333 nM [11]: 0 score 0-4; cell scattering score, MLP29, 1.000 nM [11]: 1 score 0-4; cell scattering score, MLP29, 3.000 nM [11]: 2 score 0-4; cell scattering score, MLP29, 9.000 nM [11]: 3 score 0-4; IMAX (maximum % competition) [12]: 62.7%
